Source: publication PMC2631437 (Molecular microbiology, 2008)
Numbering of substitutions follows the chain as printed. Where no end group is shown, it is not given here. The star is where a group is joined. FITC = O=C1OC2(c3ccc(O)cc3Oc3cc(O)ccc32)c2ccc(NC(=S)*)cc21

Columns and labels:
[1] = target: T1, MotA, full length (wild type) (bacteriophage T4, UniProt P22915 1-211); test: NMR titration
T1 sequence (looked up): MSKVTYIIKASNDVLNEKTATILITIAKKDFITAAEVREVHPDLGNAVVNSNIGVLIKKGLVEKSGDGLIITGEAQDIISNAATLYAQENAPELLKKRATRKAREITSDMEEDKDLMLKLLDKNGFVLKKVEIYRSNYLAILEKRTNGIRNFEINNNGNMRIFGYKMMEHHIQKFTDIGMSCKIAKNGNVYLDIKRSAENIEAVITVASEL

[2] = target: T1, MotA, full length (wild type); test: fluorescence polarisation
MotA S80R, full length = target: T2, MotA S80R, full length (bacteriophage T4, UniProt P22915 1-211, S80R); test: fluorescence polarisation
T2 sequence (looked up): T1 sequence (looked up) with S80R

MotA D43K, full length = target: T3, MotA D43K, full length (bacteriophage T4, UniProt P22915 1-211, D43K); test: fluorescence polarisation
T3 sequence (looked up): T1 sequence (looked up) with D43K

MotA K59E, full length = target: T4, MotA K59E, full length (bacteriophage T4, UniProt P22915 1-211, K59E); test: fluorescence polarisation
T4 sequence (looked up): T1 sequence (looked up) with K59E

MotA D67K, full length = target: T5, MotA D67K, full length (bacteriophage T4, UniProt P22915 1-211, D67K); test: fluorescence polarisation
T5 sequence (looked up): T1 sequence (looked up) with D67K

MotA K3E, full length = target: T6, MotA K3E, full length (bacteriophage T4, UniProt P22915 1-211, K3E); test: fluorescence polarisation
T6 sequence (looked up): T1 sequence (looked up) with K3E

MotA K28E, full length = target: T7, MotA K28E, full length (bacteriophage T4, UniProt P22915 1-211, K28E); test: fluorescence polarisation
T7 sequence (looked up): T1 sequence (looked up) with K28E

MotA Q76R, full length = target: T8, MotA Q76R, full length (bacteriophage T4, UniProt P22915 1-211, Q76R); test: fluorescence polarisation
T8 sequence (looked up): T1 sequence (looked up) with Q76R

AsiA = target: T9, AsiA (bacteriophage T4, UniProt P32267 1-90); test: NMR titration
T9 sequence (looked up): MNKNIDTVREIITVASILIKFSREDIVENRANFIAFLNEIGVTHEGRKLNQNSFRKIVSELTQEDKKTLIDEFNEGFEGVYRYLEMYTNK

MotA wild type = target: T10, MotA wild type (bacteriophage T4, UniProt P22915 1-211); test: EMSA
T10 sequence: T1 sequence (looked up)

B1: AsiA/σ4 complex (preformed binary complex of AsiA and σ^70 region 4, residues 533 to 613) (complex, bacteriophage T4 | E. coli)
chain 1: T9 sequence (looked up)
chain 2: DSATTESLRAATHDVLAGLTAREAKVLRMRFGIDMNTDYTLEEVGKQFDVTRERIRQIEAKALRKLRHPSRSEVLRSFLDD
[1]
  binding result: binds

## {FITC}-PSRSEVLRSFLDD (peptide, UniProt P00579 601-613, looked up) [fluorescein-tagged σ4-H5 peptide (σ^70 residues 601-613)]
[2]
  Kd: 15.9 ± 1.3 µM
MotA S80R, full length
  Kd: 44.7 ± 5 µM
MotA D43K, full length
  Kd: 12 ± 1 µM
MotA K59E, full length
  Kd: 10 ± 1 µM
MotA D67K, full length
  Kd: 24.3 ± 0.1 µM
MotA K3E, full length
  Kd: > 300 µM
MotA K28E, full length
  Kd: > 300 µM
MotA Q76R, full length
  Kd: 39.1 ± 5 µM

B2: σ4 (σ^70 region 4, residues 533 to 613) (domain or fragment, E. coli, UniProt P00579 533-613, looked up)
chain: B1 chain 2
[1]
  binding result: binds
AsiA
  binding result: binds

B3: 21 bp MotA box DNA (dsDNA)
DNA 1: GAATTATTTGCTTTAGATTAC
DNA 2: GTAATCTAAAGCAAATAATTC
MotA wild type
  Kd: ~0.6 µM
